Data taken from article PMC3424535.

T1: McrB-N (N-terminal DNA-binding domain of McrB) (Escherichia coli, UniProt P15005 1-161)
T1 sequence: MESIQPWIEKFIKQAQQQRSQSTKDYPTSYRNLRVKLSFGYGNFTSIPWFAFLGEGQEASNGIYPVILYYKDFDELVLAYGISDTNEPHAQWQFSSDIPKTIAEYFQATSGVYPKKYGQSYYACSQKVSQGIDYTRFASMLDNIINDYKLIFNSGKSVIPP


Target: T1, McrB-N (N-terminal DNA-binding domain …)
Experiment: pyrrolo-dC fluorescence

Binder	binding signal
p/p (dsDNA, pyrrolo-dC at position 14 of each strand (first C of ACCGGT)) DNA 1: ATCTCTCTATTCACCGGTATTCTCTCTTTC DNA 2: GAAAGAGAGAATACCGGTGAATAGAGAGAT	2.6 fold increase of pyrrolo-dC fluorescence (not affinity)
p/m (dsDNA, pyrrolo-dC at position 14 of strand 1; 5mC at position 14 of strand 2) DNA 1: ATCTCTCTATTCACCGGTATTCTCTCTTTC DNA 2: GAAAGAGAGAATACCGGTGAATAGAGAGAT	~4 fold increase of pyrrolo-dC fluorescence (not affinity)
